Results reported in the supplement of paper PMC10567573.

B1: FBF1 (parent)
chain: LQRASILDMRRDHEEQLQRLKLLK
B2: RHOBTB3 (parent)
chain: STTEGIQLAKELGATYLELHSLDD

Variants of: B1
Assay: protein stability index of a GFP-peptide fusion (GPS, HEK-293T) (PSI 1-6); higher = more stable
Conditions: c terminus: a fixed tail appended
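Note: lentivirally expressed fusions sorted by FACS into six bins by GFP to DsRed ratio, PSI derived from sequencing read proportions per bin multiplied by bin number.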

| Variant | protein stability index |
| --- | --- |
| LQRASILDMRRDHETQLQRLKLLK [E15T] | 3.39 |
| LQRASILDMRRDHEKQLQRLKLLK [E15K] | 3.04 |
| LQRASILDMRRDHEQQLQRLKLLK [E15Q] | 3.18 |
| LQRASILDMRRDHEPQLQRLKLLK [E15P] | 3.22 |
| LQRASILDMRRDHEWQLQRLKLLK [E15W] | 2.29 |
| LQRASILDMRRDHEVQLQRLKLLK [E15V] | 3.13 |
| LQRASICDMRRDHEEQLQRLKLLK [L7C] | 3.68 |
| LQRASIYDMRRDHEEQLQRLKLLK [L7Y] | 3.56 |
| LQRASIPDMRRDHEEQLQRLKLLK [L7P] | 3.98 |
| LQRASITDMRRDHEEQLQRLKLLK [L7T] | 3.38 |
| LQRASIVDMRRDHEEQLQRLKLLK [L7V] | 3.97 |
| LQRASIKDMRRDHEEQLQRLKLLK [L7K] | 3.42 |
| LQRASIEDMRRDHEEQLQRLKLLK [L7E] | 4.55 |
| LQRASIFDMRRDHEEQLQRLKLLK [L7F] | 2.85 |
| LQRASILDMRRDHEEQLQKLKLLK [R19K] | 3.14 |
| LQRASILDMRRDHEEQLQMLKLLK [R19M] | 3.03 |
| LQRASILDMRRDHEEQLQYLKLLK [R19Y] | 2.72 |
| LQRASILDMRRDHEEQLQPLKLLK [R19P] | 3.75 |
| LQRASILDMRRDHEEQLQALKLLK [R19A] | 3.48 |
| LQRASILDMRRDHEEQLQCLKLLK [R19C] | 2.65 |
| LQRASILDMRRDHEEQLQVLKLLK [R19V] | 2.48 |

| Variant | protein stability index |
| --- | --- |
| LQRASILDMRRDHEEQLTRLKLLK [Q18T] | 3.36 |
| LQRASILDMRRDHEEQLNRLKLLK [Q18N] | 3.6 |
| LQRASILDMRRDHEEQLCRLKLLK [Q18C] | 3.1 |
| LQRASILDMRRDHEEQLKRLKLLK [Q18K] | 3.51 |
| LQRASILDMRRDHEEQLYRLKLLK [Q18Y] | 2.78 |
| LQRASILDMRRDHEEQLSRLKLLK [Q18S] | 3.19 |
| LQRASILDMRRDHEEQLIRLKLLK [Q18I] | 2.47 |
| LQRASILDMRRDHEEELQRLKLLK [Q16E] | 3.64 |
| LQRASILDMRRDHEENLQRLKLLK [Q16N] | 3.48 |
| LQRASILDMRRDHEECLQRLKLLK [Q16C] | 3.09 |
| LQRASILDMRRDHEEDLQRLKLLK [Q16D] | 4.02 |
| LQRASILDMRRDHEELLQRLKLLK [Q16L] | 2.73 |
| LQRASILDMRRDHEEILQRLKLLK [Q16I] | 2.28 |
| LQRASILDMRRDHEERLQRLKLLK [Q16R] | 2.77 |
| LQRASILDMRRDHEEVLQRLKLLK [Q16V] | 3.04 |
| LQRASILDMRRDHEEALQRLKLLK [Q16A] | 3.18 |
| LQRASILMMRRDHEEQLQRLKLLK [D8M] | 3.06 |
| LQRASILVMRRDHEEQLQRLKLLK [D8V] | 2.33 |
| LQRASILGMRRDHEEQLQRLKLLK [D8G] | 2.76 |
| LQRASILWMRRDHEEQLQRLKLLK [D8W] | 2.5 |
| LQRASILQMRRDHEEQLQRLKLLK [D8Q] | 3.07 |

| Variant | protein stability index |
| --- | --- |
| LQRASILKMRRDHEEQLQRLKLLK [D8K] | 2.77 |
| LQRASILEMRRDHEEQLQRLKLLK [D8E] | 3.86 |
| LQRASILDMRRDHEEQHQRLKLLK [L17H] | 4 |
| LQRASILDMRRDHEEQQQRLKLLK [L17Q] | 4.52 |
| LQRASILDMRRDHEEQWQRLKLLK [L17W] | 2.96 |
| LQRASILDMRRDHEEQKQRLKLLK [L17K] | 4.05 |
| LQRASILDMRRDHEEQCQRLKLLK [L17C] | 3.55 |
| LQRASILDMRRDHEEQAQRLKLLK [L17A] | 3.9 |
| LQRASILDMRRDHEEQVQRLKLLK [L17V] | 3.87 |
| LQRASILDMRRDHEEQIQRLKLLK [L17I] | 3.91 |
| LQRASILDMRRDHEEQNQRLKLLK [L17N] | 3.91 |
| LQVASILDMRRDHEEQLQRLKLLK [R3V] | 2.92 |
| LQSASILDMRRDHEEQLQRLKLLK [R3S] | 3.9 |
| LQWASILDMRRDHEEQLQRLKLLK [R3W] | 1.9 |
| LQLASILDMRRDHEEQLQRLKLLK [R3L] | 2.92 |
| LQTASILDMRRDHEEQLQRLKLLK [R3T] | 3.5 |
| LQAASILDMRRDHEEQLQRLKLLK [R3A] | 3.86 |
| LQRAYILDMRRDHEEQLQRLKLLK [S5Y] | 2.26 |
| LQRADILDMRRDHEEQLQRLKLLK [S5D] | 3.81 |
| LQRARILDMRRDHEEQLQRLKLLK [S5R] | 2.83 |
| LQRAVILDMRRDHEEQLQRLKLLK [S5V] | 2.92 |

| Variant | protein stability index |
| --- | --- |
| LQRASRLDMRRDHEEQLQRLKLLK [I6R] | 3.46 |
| LQRASSLDMRRDHEEQLQRLKLLK [I6S] | 4.15 |
| LQRASMLDMRRDHEEQLQRLKLLK [I6M] | 3.94 |
| LQRASYLDMRRDHEEQLQRLKLLK [I6Y] | 3.58 |
| LQRASDLDMRRDHEEQLQRLKLLK [I6D] | 4.31 |
| LQRASALDMRRDHEEQLQRLKLLK [I6A] | 4.03 |
| LQRASQLDMRRDHEEQLQRLKLLK [I6Q] | 4.06 |
| LQRASTLDMRRDHEEQLQRLKLLK [I6T] | 3.66 |
| LQRASVLDMRRDHEEQLQRLKLLK [I6V] | 3.57 |
| LQRASHLDMRRDHEEQLQRLKLLK [I6H] | 4.19 |
| LQRASILDGRRDHEEQLQRLKLLK [M9G] | 4.12 |
| LQRASILDVRRDHEEQLQRLKLLK [M9V] | 3.61 |
| LQRASILDQRRDHEEQLQRLKLLK [M9Q] | 3.86 |
| LQRASILDKRRDHEEQLQRLKLLK [M9K] | 3.9 |
| LQRASILDTRRDHEEQLQRLKLLK [M9T] | 3.94 |
| LQRASILDHRRDHEEQLQRLKLLK [M9H] | 3.49 |
| LQRASILDLRRDHEEQLQRLKLLK [M9L] | 3.24 |
| LQRASILDNRRDHEEQLQRLKLLK [M9N] | 3.85 |
| LQRASILDARRDHEEQLQRLKLLK [M9A] | 3.84 |
| LQRASILDCRRDHEEQLQRLKLLK [M9C] | 2.25 |

Variants of: B2
Assay: as above
Conditions: c terminus: a fixed tail appended

| Variant | protein stability index |
| --- | --- |
| CTTEGIQLAKELGATYLELHSLDD [S1C] | 2.86 |
| HTTEGIQLAKELGATYLELHSLDD [S1H] | 2.81 |
| GTTEGIQLAKELGATYLELHSLDD [S1G] | 3.69 |
| MTTEGIQLAKELGATYLELHSLDD [S1M] | 3.49 |
| KTTEGIQLAKELGATYLELHSLDD [S1K] | 4.39 |
| LTTEGIQLAKELGATYLELHSLDD [S1L] | 2.26 |
| ITTEGIQLAKELGATYLELHSLDD [S1I] | 2.44 |
| ETTEGIQLAKELGATYLELHSLDD [S1E] | 4.26 |
| FTTEGIQLAKELGATYLELHSLDD [S1F] | 2.39 |
| ATTEGIQLAKELGATYLELHSLDD [S1A] | 3.21 |
| DTTEGIQLAKELGATYLELHSLDD [S1D] | 4.37 |
